Assay results from PMC10962640, ““Clickable” graphene nanoribbons for biosensor interfaces†”.

What was measured:
[1] = target: T1, Interleukin-6 (IL6) (human, UniProt P05231 30-212); assay: DPV (electrochemical aptasensor); [Fe(CN)6]4- redox probe; Hill fit, coefficient fixed at 1; Aptamer on GNR-functionalized gold electrodes, [Fe(CN)6]4- redox probe; sensing buffer, pH and temperature not given in the material (aptamer clicked in PBS 1X); details: protein: commercial
[2] = target: T1, Interleukin-6 (IL6); assay: EIS (electrochemical aptasensor); [Fe(CN)6]4- redox probe; phase shift; Hill fit, coefficient fixed at 1; Aptamer on GNR-functionalized gold electrodes, [Fe(CN)6]4- redox probe; sensing buffer, pH and temperature not given in the material (aptamer clicked in PBS 1X); details: protein: commercial

T1 sequence (P05231 30-212): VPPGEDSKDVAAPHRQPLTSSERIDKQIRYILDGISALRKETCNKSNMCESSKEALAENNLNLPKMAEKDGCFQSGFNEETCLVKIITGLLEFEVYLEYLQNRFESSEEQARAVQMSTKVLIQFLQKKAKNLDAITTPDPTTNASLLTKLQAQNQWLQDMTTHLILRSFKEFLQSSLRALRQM

B1: IL6 DNA aptamer (azide-modified) (ssDNA)
DNA: TTTTTTCTTCCAACGCTCGTATTGTCAGTCTTTAGT
modifications: 5' azide (/5AzideN/), clicked by CuAAC to alkyne graphene nanoribbons on gold electrode
[1]
  Kd: 3.4 ± 0.4 nM
[2]
  Kd: 10.4 ± 3.1 nM
